Data reported in the RNAGym collection of RNA variant scans (doi:10.1073/pnas.2313332121).
Variants at the floor of the assay were thinned out.

B1: TPR 5TU (parent)
chain: GGAUCUUCUCGAUCUAACAAAAAAGACAAAUCUGCCACAAAGCUUGAGAGCAUCUUCGGAUGCAGAGGCGGCAGCCUUCGGUGGCGCGAUAGCGCCAACGUUCUCAACUAUGACACGCAAAACGCGUGCUCCGUUGAAUGGAGUUUAUCAUG

Variants of: B1
Assay: polymerase ribozyme fitness, log enrichment relative to wild type (log ratio); higher = more active; in vitro selection for triplet polymerase activity
Procedure, shortened: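 One round of in vitro selection, in triplicate, was applied to PCR-built, transcribed mutant libraries of each subunit of a heterodimeric triplet polymerase ribozyme. The steps were annealing with a biotinylated primer, partner subunit and triplets, incubation frozen at −7 °C, gel excision of extended constructs, streptavidin-bead capture and RT-PCR. Fitness is the logarithm, base 2, of genotype enrichment over wild-type enrichment from inverse-variance-weighted replicate averages of Illumina-sequenced inputs and outputs, keeping genotypes with ≥10 input reads and ≥1 read per output.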

Point of comparison: C63U G126C, “polymerase ribozyme fitness (log ratio)” value 0.627. Against it:
- C69A A73C G84U U109C C118A — lower, ≤ -4.2
- G67A C114U U134G A150C — lower, ≤ -4.2
- A64G G67U G84U C103A G112C A115U U146C — lower, ≤ -4.2
- A66G U102A U135C — lower, ≤ -4.2
- G67A A98U U139C U148A — lower, ≤ -4.2
- A64G G80U C85U C93U G94U C103U — lower, -4.18
- G68C — lower, -3.92
- G68A — lower, -3.29
- G68U — lower, -3.71
- C69G C99A A115G — lower, -3.71
- G67A C87U A107U C125G G126C — lower, -4.14
- C69G C85A G94U — lower, -1.01
- G68U C85G — lower, ≤ -4.2
- G67C G71C G86A A107U A121U U144G — lower, ≤ -4.2
- C63U C69A C87A G140C — lower, ≤ -4.2
- C63U U82G G126A G140A — lower, -3.92
- G67C G86C C96A G112U A113U G126U — lower, ≤ -4.2
- G68C A122C — lower, ≤ -4.2
- C63G G83A A98C U104A — lower, -0.841
- C69U C85A — lower, -3.16
- C69U C85G — lower, -2.16
- A66G G92C C95A C103U C108G U151C — lower, ≤ -4.2
- C63U U104G — lower, 0.272
- C69U C76G — lower, ≤ -4.2
- C69G C103G C116U — lower, -2.03
- A64U G92A C95A U101C C105U C123A G124C U145G U148G — lower, ≤ -4.2
- G67U C85G — lower, ≤ -4.2
- G67C G94A U139A A142U — lower, ≤ -4.2
- G68U A73G C76U A91U A98G C99A G112U — lower, ≤ -4.2
- G67A A91G U135G C149U — lower, ≤ -4.2
- G68U C85A A110G C132G A137G G141C U151G — lower, ≤ -4.2
- A66G C85U U111G U146A — lower, ≤ -4.2
- C63U C103G U146G — lower, -2.3
- C63U C95U — lower, -0.692
- G65C A89C G92A U102G C116U A137G — lower, ≤ -4.2
- C69A A119U — lower, -2.7
- C63G G67C U135G — lower, ≤ -4.2
- A64C G65A A107G G112U G124A G141U U148G — lower, ≤ -4.2
- C69A G84A U104G C125U G126A A142C — lower, ≤ -4.2
- A64C G65A G84U C116G U139C — lower, ≤ -4.2
- G67C G84A C99U C105A A115C A137C G141A — lower, ≤ -4.2
- C69A G71U — lower, -0.808
- A64C A107C C131A — lower, ≤ -4.2
- G68U G94C C95A A115U G136U — lower, ≤ -4.2
- A66G C76U C85A C96U — lower, ≤ -4.2
- A64G A150U — lower, -3.42
- G68A G86A C87G — lower, ≤ -4.2
- C63U G65A A73U A115G U134G — lower, ≤ -4.2
- G68A G88A C96G C118A G126A — lower, -4.16
- G67U G83U U101G — lower, ≤ -4.2
- G65U A66C U77A A147C — lower, ≤ -4.2
- A66C C76U U82G C85G C125G — lower, ≤ -4.2
- G67C A97C C103G C125U C129U A142U G143C A150U — lower, ≤ -4.2
- C63U C93A C116G A142G — lower, -3.41
- C69U C118U — lower, -1.4
- G68A G74C G88A — lower, ≤ -4.2
- G68A U139C — lower, ≤ -4.2
- G65A C75A G81U G94A C105U G140U — lower, -3.7
- C63U C125U G133U — lower, -3.67
- C69G C87A A91C G126A — lower, ≤ -4.2
- A64G G83U C118A A138G — lower, ≤ -4.2
- C69U A73G G83C — lower, -3.38
- G68C C103U — lower, ≤ -4.2
- A66U C96A U111A A122G A138C — lower, ≤ -4.2
- G68C C93G — lower, ≤ -4.2
- C69A G83C U101G — lower, ≤ -4.2
- C63U U139G — lower, 0.261
- A64G A91C — lower, ≤ -4.2
- C69A C85G A121C — lower, -3.43
- G68A A138G — lower, ≤ -4.2
- C69G A106C A137C — lower, ≤ -4.2
- C69A A91G — lower, -3.81
- C69A A91U — lower, ≤ -4.2
- G68A G92C — lower, -4.16
- C63G U102G C105U — lower, ≤ -4.2
- A66C A73G G80C C114A G141A — lower, ≤ -4.2
- C63U G68A — lower, ≤ -4.2
- C63U U148C — lower, -1.65
- C69A G83C — lower, -3.07
- G67C G92A C96U C118U — lower, ≤ -4.2
- A64C G88U A150C — lower, ≤ -4.2
- G67U A89C C96G A106C A119C — lower, ≤ -4.2
- G68U C95U C96U A113C G124U — lower, ≤ -4.2
- C69U C72U — lower, -1.99
- C63U C87G — lower, -4.05
- C63U A91U C93G U139G — lower, ≤ -4.2
- A64U C96U C105G G141A A147G — lower, ≤ -4.2
- C69A G94C — lower, -0.673
- C63U G141U — higher, 1.25
- G68U A73U G94A A119U — lower, ≤ -4.2
- A64G G68C A142G G143A — lower, ≤ -4.2
- A66G G81U C87G C99U U104G U134A A142U — lower, ≤ -4.2
- C63U G70A C85G A138C — lower, ≤ -4.2
- C69A C76A U109C — lower, ≤ -4.2
- A66U C76G C85A C95U U102G A113U C116A A142C — lower, ≤ -4.2
- G68C A91C A106U U127A — lower, ≤ -4.2
- A64G C69G C75A C85A A89U C93A U104G — lower, ≤ -4.2
- A66G G68C U102A — lower, ≤ -4.2
- C63U C76A C103G U146G U148G — lower, ≤ -4.2
- G65U G71C A73U A122U G126A A137C U146A — lower, ≤ -4.2
- G68A G80A G86U U90G A91G G136A A142G — lower, ≤ -4.2
- A64C G83C A89U U134A G141A — lower, ≤ -4.2
- G68C C85G G136C — lower, ≤ -4.2
- A66G C93U C108U C132G C149A — lower, ≤ -4.2
- G67C G84A U139A G140U — lower, ≤ -4.2
- C63G U90A C99G U148A — lower, ≤ -4.2
- C69A G71U C85G C103U G117C — lower, -3.28
- G67A C72A A142U — lower, ≤ -4.2
- C63U U102A U104G G124A — lower, -2.05
- G68U C99U G117C G143A — lower, ≤ -4.2
- G67A U78G G86U C99U G141A — lower, ≤ -4.2
- G65C G68A G83A A115U G140A — lower, ≤ -4.2
- C69G A73C U77C G84A C118U C131A U139G — lower, ≤ -4.2
- A66U A89G — lower, ≤ -4.2
- G65A C105U — lower, -0.804
- C63U C96U A150G — lower, -1.22
- C69A G83A G143U — lower, -3.59
- C69A G70A — lower, -4.19
- A64U A121C G143A — lower, ≤ -4.2
- C63U G86A — lower, -2.99
- A66G C69A G84U A138U — lower, ≤ -4.2
- A64U C69U — lower, ≤ -4.2
- C69U C75U G92A U104G G133U C149U — lower, ≤ -4.2
- A66G U111C — lower, ≤ -4.2
- G68C U104G C105G C118U G133C — lower, ≤ -4.2
- A66C G70A G71A G100U G143A U148G — lower, ≤ -4.2
- A66C C85G G141A U146C — lower, ≤ -4.2
- G68A C79U U139G U146C — lower, ≤ -4.2
- C69G C85U A91G C118A C129G U144A — lower, ≤ -4.2
- C63U G81C U82C U102G U104A C108A A150C — lower, ≤ -4.2
- G67U C93U — lower, -3.74
- C69A G143U — lower, -3.34
- A66C G92C C114U — lower, ≤ -4.2
- G68A A91G G128A — lower, ≤ -4.2
- G65A G67C G92A — lower, ≤ -4.2
- A66G A89U C93U C95G — lower, ≤ -4.2
- A66C G71C G84U — lower, ≤ -4.2
- G67A G81A A91C A137C U148C — lower, ≤ -4.2
- G68A C76A G86A U102C G124C G152A — lower, ≤ -4.2
- C69A G84A A89G U146C — lower, -2.59
- C63U A98G G126U C129G — lower, ≤ -4.2
- A64C A73U G84A U102G C116A — lower, ≤ -4.2
- C69A C72U — lower, -3.05
- A64U C87U G100C U135G A150G — lower, ≤ -4.2
- G67C C93U A107C C125G — lower, ≤ -4.2
- A64G C99A G143A — lower, ≤ -4.2
- G67U A120U — lower, -2.15
- C69G A119U — lower, -1.72
- C69A C75U A106G A120G — lower, -2.33
- G68A A122G G133C — lower, ≤ -4.2
- C63U — lower, -0.0732
- G65U C72A C85A U135G — lower, ≤ -4.2
- G68U G128U — lower, ≤ -4.2
- C63G G92U U102C A120G — lower, -1.8
- A66C G71A A73G G83C U151A — lower, ≤ -4.2
- A66C A73C — lower, ≤ -4.2
- C63G G81C U82A — lower, -0.391
- G68C C85U — lower, -3.93
- C69G C103A U144G — lower, -1.57
- A64G U82G A91U C95U A110U U111G — lower, ≤ -4.2
- A66C C69U C96U — lower, ≤ -4.2
- A66G C93A C95A C96U C116U — lower, ≤ -4.2
- A66C A91C — lower, ≤ -4.2
- A64U A110G — lower, ≤ -4.2
- G68A C96U C132G — lower, ≤ -4.2
- G65C G71U — lower, ≤ -4.2
